From patent US20240252613A1 (ACHELOIS BIOPHARMA, published 2024)

What was measured:
[1] = biological target: T1, GITR Ligand on transfected S293 cells (Mus musculus (Mouse), UniProt Q7TS55 1-173); assay: FACS, dye-labeled MVP on transfected S293 cells
T1 sequence: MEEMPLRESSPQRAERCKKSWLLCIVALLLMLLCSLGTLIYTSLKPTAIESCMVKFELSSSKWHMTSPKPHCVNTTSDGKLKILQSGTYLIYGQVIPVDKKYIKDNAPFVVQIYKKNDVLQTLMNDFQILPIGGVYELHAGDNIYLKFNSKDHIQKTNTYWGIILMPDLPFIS

[2] = biological target: T1, GITR Ligand on transfected S293 cells; assay: FACS, unlabeled MVP on transfected cells, detected with antibody
[3] = biological target: T2, ICOS ligand on transfected S293 cells (Mus musculus (Mouse), UniProt Q9JHJ8 47-322); assay: FACS, dye-labeled MVP on transfected S293 cells
T2 sequence: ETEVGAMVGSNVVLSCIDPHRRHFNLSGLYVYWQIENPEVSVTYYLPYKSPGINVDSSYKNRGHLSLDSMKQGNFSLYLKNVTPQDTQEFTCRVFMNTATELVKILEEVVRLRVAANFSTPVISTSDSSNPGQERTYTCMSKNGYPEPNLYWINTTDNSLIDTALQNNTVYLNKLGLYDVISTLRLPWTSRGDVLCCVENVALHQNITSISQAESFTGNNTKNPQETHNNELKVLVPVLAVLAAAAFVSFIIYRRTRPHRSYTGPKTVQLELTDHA

[4] = biological target: T3, human TIM-3 on transfected S293 cells (human, UniProt Q8TDQ0 22-301); assay: FACS, dye-labeled MVP on transfected S293 cells
T3 construct: also called HAVCR2
T3 sequence: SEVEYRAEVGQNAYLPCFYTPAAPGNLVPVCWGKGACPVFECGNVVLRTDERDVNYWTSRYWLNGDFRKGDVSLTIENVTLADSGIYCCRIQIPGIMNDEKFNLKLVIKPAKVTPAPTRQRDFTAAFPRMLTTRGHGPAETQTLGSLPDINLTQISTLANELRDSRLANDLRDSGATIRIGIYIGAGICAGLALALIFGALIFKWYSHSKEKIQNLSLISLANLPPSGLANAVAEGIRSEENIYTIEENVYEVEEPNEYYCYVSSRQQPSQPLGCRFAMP

[5] = biological target: T3, human TIM-3 on transfected S293 cells; assay: FACS, unlabeled MVP on transfected cells, detected with antibody
[6] = biological target: T4, CD2 on transfected S293 cells (Mus musculus (Mouse), UniProt P08920 23-344); assay: as above
T4 sequence: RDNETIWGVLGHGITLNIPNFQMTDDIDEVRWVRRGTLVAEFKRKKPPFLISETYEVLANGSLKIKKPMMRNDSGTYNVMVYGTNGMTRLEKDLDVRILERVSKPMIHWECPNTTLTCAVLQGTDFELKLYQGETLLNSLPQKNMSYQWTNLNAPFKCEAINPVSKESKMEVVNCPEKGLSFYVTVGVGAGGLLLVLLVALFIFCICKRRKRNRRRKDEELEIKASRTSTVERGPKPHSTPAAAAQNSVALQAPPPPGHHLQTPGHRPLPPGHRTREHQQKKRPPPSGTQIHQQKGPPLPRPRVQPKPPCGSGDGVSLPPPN

[7] = biological target: T5, 4-1BBL on transfected S293 cells (Mus musculus (Mouse), UniProt P41274 1-309); assay: FACS, dye-labeled MVP on transfected S293 cells
T5 construct: also called 4-1BB ligand
T5 sequence: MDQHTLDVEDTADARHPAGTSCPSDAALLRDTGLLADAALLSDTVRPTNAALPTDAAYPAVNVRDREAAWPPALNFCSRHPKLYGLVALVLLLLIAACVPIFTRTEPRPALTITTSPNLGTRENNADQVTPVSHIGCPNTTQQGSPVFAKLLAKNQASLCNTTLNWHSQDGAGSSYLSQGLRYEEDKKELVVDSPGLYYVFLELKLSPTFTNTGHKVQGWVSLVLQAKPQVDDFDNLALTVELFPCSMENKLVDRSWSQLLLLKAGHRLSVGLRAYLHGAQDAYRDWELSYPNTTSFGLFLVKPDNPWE

[8] = biological target: T6, OX40L on transfected S293 cells (Mus musculus (Mouse), UniProt P43488 1-198); assay: FACS, dye-labeled MVP on transfected S293 cells
T6 construct: also called OX40 ligand
T6 sequence: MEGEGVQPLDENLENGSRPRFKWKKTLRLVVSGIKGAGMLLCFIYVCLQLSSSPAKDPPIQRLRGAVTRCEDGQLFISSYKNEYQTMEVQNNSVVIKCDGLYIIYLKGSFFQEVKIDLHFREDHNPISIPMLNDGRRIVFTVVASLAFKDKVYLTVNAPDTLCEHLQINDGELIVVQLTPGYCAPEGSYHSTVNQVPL

[9] = biological target: T6, OX40L on transfected S293 cells; assay: FACS, unlabeled MVP on transfected cells, detected with antibody

B1: GITR-MVP (other)
chain: QPSVVEEPGCGPGKVQNGSGNNTRCCSLYAPGKEDCPKERCICVTPEYHCGDPQCKICKHYPCQPGQRVESQGDIVFGFRCVACAMGTFSAGRDGHCRLWTNCSQFGFLTMFPGNKTHNAVCIPEPLPTEQYGHIIQADGWMCHASKWVTTCDFRWYGPKYITHSIRSFTPSVEQCKESIEQTKQGTWLNPGFPPQSCGYATVTDAEAVIVQVTPHHVLVDEYTGEWVDSQFINGKCSNYICPTVHNSTTWHSDYKVKGLCDSNLGMLDSDLHLSSKAQVFEHPHIQDAASQLPDDESLFFGDTGLSKNPIELVEGWFSSWKSSIASFFFIIGLIIGLFLVLRVGIHLCIKLKHTKKRQIYTDIEMNRLGK
notes: also called GITR-MVPs; Murine GITR-MVP
- fluorescence shift relative to control MVPs [1]: ≥ 2 log
- staining shift of target+ over target- cells [2]: 1 log

B2: ICOS-MVP (other)
chain: EINGSADHRMFSFHNGGVQISCKYPETVQQLKMRLFREREVLCELTKTKGSGNAVSIKNPMLCLYHLSNNSVSFFLNNPDSSQGSYYFCSLSIFDPPPFQERNLSGGYLHIYESQLCCQLKLDIIQADGWMCHASKWVTTCDFRWYGPKYITHSIRSFTPSVEQCKESIEQTKQGTWLNPGFPPQSCGYATVTDAEAVIVQVTPHHVLVDEYTGEWVDSQFINGKCSNYICPTVHNSTTWHSDYKVKGLCDSNLGMLDSDLHLSSKAQVFEHPHIQDAASQLPDDESLFFGDTGLSKNPIELVEGWFSSWKSSIASFFFIIGLIIGLFLVLRVGIHLCIKLKHTKKRQIYTDIEMNRLGK
notes: also called ICOS-MVPs; Murine ICOS-MVP
- fluorescence shift relative to control MVPs [3]: ~2 fold

B3: human Ceacam1-MVP (other)
chain: QLTTESMPFNVAEGKEVLLLVHNLPQQLFGYSWYKGERVDGNRQIVGYAIGTQQATPGPANSGRETIYPNASLLIQNVTQNDTGFYTLQVIKSDLVNEEATGQFHVYPELPKPSISSNNSNPVEDKDAVAFTCEPETQDTTYLWWINNQSLPVSPRLQLSNGNRTLTLLSVTRNDTGPYECEIQNPVSANRSDPVTLNVTYGPDTPTISPSDTYYRPGANLSLSCYAASNPPAQYSWLINGTFQQSTQELFIPNITVNNSGSYTCHANNSVTGCNRTTVKTIIVTELSPVVAKPQIKASKTTVTGDKDSVNLTCSTNDTGISIRWFFKNQSLPSSERMKLSQGNTTLSINPVKREDAGTYWCEVFNPISKNQSDPIMLNVNYNALPQENGLSPGIIQADGWMCHASKWVTTCDFRWYGPKYITHSIRSFTPSVEQCKESIEQTKQGTWLNPGFPPQSCGYATVTDAEAVIVQVTPHHVLVDEYTGEWVDSQFINGKCSNYICPTVHNSTTWHSDYKVKGLCDSNLGMLDSDLHLSSKAQVFEHPHIQDAASQLPDDESLFFGDTGLSKNPIELVEGWFSSWKSSIASFFFIIGLIIGLFLVLRVGIHLCIKLKHTKKRQIYTDIEMNRLGK
notes: also called Ceacam1-MVPs
- fluorescence shift relative to control MVPs [4]: ~2 fold
- staining shift of target+ over target- cells [5]: ~2 fold

B4: CD48-MVP (other)
chain: FQGHSIPDINATTGSNVTLKIHKDPLGPYKRITWLHTKNQKILEYNYNSTKTIFESEFKGRVYLEENNGALHISNVRKEDKGTYYMRVLRETENELKITLEVFDPVPKPSIEINKTEASTDSCHLRLSCEVKDQHVDYTWYESSGPFPKKSPGYVLDLIVTPQNKSTFYTCQVSNPVSSKNDTVYFTLPCDLARSSGVCWTATWLVVTTLIIHRILLTIIQADGWMCHASKWVTTCDFRWYGPKYITHSIRSFTPSVEQCKESIEQTKQGTWLNPGFPPQSCGYATVTDAEAVIVQVTPHHVLVDEYTGEWVDSQFINGKCSNYICPTVHNSTTWHSDYKVKGLCDSNLGMLDSDLHLSSKAQVFEHPHIQDAASQLPDDESLFFGDTGLSKNPIELVEGWFSSWKSSIASFFFIIGLIIGLFLVLRVGIHLCIKLKHTKKRQIYTDIEMNRLGK
notes: also called CD48-MVPs; Murine CD48-MVP
- staining shift of target+ over target- cells [6]: > 1 log

B5: 4-1BB-MVP (other)
chain: VQNSCDNCQPGTFCRKYNPVCKSCPPSTFSSIGGQPNCNICRVCAGYFRFKKFCSSTHNAECECIEGFHCLGPQCTRCEKDCRPGQELTKQGCKTCSLGTFNDQNGTGVCRPWTNCSLDGRSVLKTGTTEKDVVCGPPVVSFSPSTTISVTPEGGPGGHSLQVLTDIIQADGWMCHASKWVTTCDFRWYGPKYITHSIRSFTPSVEQCKESIEQTKQGTWLNPGFPPQSCGYATVTDAEAVIVQVTPHHVLVDEYTGEWVDSQFINGKCSNYICPTVHNSTTWHSDYKVKGLCDSNLGMLDSDLHLSSKAQVFEHPHIQDAASQLPDDESLFFGDTGLSKNPIELVEGWFSSWKSSIASFFFIIGLIIGLFLVLRVGIHLCIKLKHTKKRQIYTDIEMNRLGK
notes: also called 4-1BB-MVPs; Murine 4-1BB-MVP
- fluorescence shift relative to control MVPs [7]: ≥ 2 fold

B6: OX40-MVP (other)
chain: VTARRLNCVKHTYPSGHKCCRECQPGHGMVSRCDHTRDTLCHPCETGFYNEAVNYDTCKQCTQCNHRSGSELKQNCTPTQDTVCRCRPGTQPRQDSGYKLGVDCVPCPPGHFSPGNNQACKPWTNCTLSGKQTRHPASDSLDAVCEDRSLLATLLWETQRPTFRPTTVQSTTVWPRTSELPSPPTLVTPEGPADIIQADGWMCHASKWVTTCDFRWYGPKYITHSIRSFTPSVEQCKESIEQTKQGTWLNPGFPPQSCGYATVTDAEAVIVQVTPHHVLVDEYTGEWVDSQFINGKCSNYICPTVHNSTTWHSDYKVKGLCDSNLGMLDSDLHLSSKAQVFEHPHIQDAASQLPDDESLFFGDTGLSKNPIELVEGWFSSWKSSIASFFFIIGLIIGLFLVLRVGIHLCIKLKHTKKRQIYTDIEMNRLGK
notes: also called OX40-MVPs; Murine OX40-MVP
- fluorescence shift relative to control MVPs [8]: ≥ 2 fold
- staining shift of target+ over target- cells [9]: 1 log
